Laboratory results reported in PMC11289882 (2024).

Experiments:
CITED2 variant 4 218-256 = target: T1, CITED2 variant 4 218-256 (Homo sapiens, UniProt Q99967, beta3-amino acid replacements in C-terminus); assay: ITC
T1 chain: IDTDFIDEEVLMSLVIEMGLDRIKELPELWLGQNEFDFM

[1] = target: T2, CITED2 variant 3a 218-256 (Homo sapiens, UniProt Q99967, beta3-amino acid replacements in loop (LPEL motif)); assay: ITC
T2 chain: T1 chain

CITED2 variant 1 218-256 = target: T3, CITED2 variant 1 218-256 (Homo sapiens, UniProt Q99967, beta3-amino acid replacements in N-terminal tail); assay: ITC
T3 chain: T1 chain

[2] = target: T4, CITED2 variant 3b 218-256 (Homo sapiens, UniProt Q99967, beta3-amino acid replacements in loop); assay: ITC
T4 chain: T1 chain

CITED2 variant 2 218-256 = target: T5, CITED2 variant 2 218-256 (Homo sapiens, UniProt Q99967, beta3-amino acid replacements in αA helix); assay: ITC
T5 chain: T1 chain

[3] = target: T6, CITED2 variant 3c 218-256 (Homo sapiens, UniProt Q99967, beta3-amino acid replacements in loop); assay: ITC
T6 chain: T1 chain

HIF-1α 776-826 = target: T7, HIF-1α 776-826 (Homo sapiens, UniProt Q16665); assay: anisotropy
T7 chain: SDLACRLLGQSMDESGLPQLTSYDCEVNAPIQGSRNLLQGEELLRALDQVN

B1: p300 TAZ1 330-420 (protein)
chain: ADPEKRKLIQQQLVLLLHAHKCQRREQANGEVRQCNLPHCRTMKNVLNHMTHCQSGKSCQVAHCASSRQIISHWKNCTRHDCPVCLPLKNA
B1 showed a Kd (CITED2 variant 4 218-256) of 0.017 µM, a Kd [1] of 0.675 µM and a Kd (CITED2 variant 1 218-256) of 0.019 µM. The Kd [2] was 0.098 µM, the Kd (CITED2 variant 2 218-256) was 0.016 µM and the Kd [3] was 0.029 µM. The Kd (HIF-1α 776-826) was 0.057 µM.
